Binding result and Kd data for five molecules are collected here from patent publication US20230052369A1 (Zymeworks, published 2023).

Assay [1] has as its target T1, full-length human FRα, on 293E cells (human, UniProt P15328 25-234).
T1 construct: also called folate receptor alpha; FOLR1
As to the kind of experiment: flow cytometry, 293E cells expressing FRα. (Flow cytometry measures light scatter and fluorescence of single cells or particles in a stream.)
Description: Antibodies were diluted in 50 μl FB (PBS 2% FCS) 1:3 from stock in wells of a 96 V-well plate, and cells added on top. The cells were then left on ice for 30 minutes for the antibodies to bind. The cells were then washed twice in FB, and incubated in 50 μl FB containing 2 μg/ml goat anti-human Alexa647 antibody (Jackson Immunoresearch). The cells were then left on ice for a further 20 minutes, washed twice in FB, resuspended in 100 μl FB and analyzed on a BD Fortessa™ X20. The subsequent data files were analyzed using FlowJo™ and Prism 7 (GraphPad).

The target in assay [2] is T2, purified human monomeric 4-1BB (human, UniProt Q07011 24-186).
T2 construct: the assay used the 4-1BB part released by Factor Xa with the Fc removed; also called h4-1BB; human 4-1BB
T2 sequence (Q07011 other isoform, or with tags, fused parts or gaps limits assumed): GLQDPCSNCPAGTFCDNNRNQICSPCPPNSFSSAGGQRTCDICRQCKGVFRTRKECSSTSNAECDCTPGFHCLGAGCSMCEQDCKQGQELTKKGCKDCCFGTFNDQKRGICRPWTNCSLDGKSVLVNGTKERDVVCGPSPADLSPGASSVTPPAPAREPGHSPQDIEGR
In words: SPR, Ab captured, monomeric 4-1BB injected. For orientation: SPR reads the build-up and loss of mass on a sensor chip optically.
Description: The anti-human Fc surface was prepared on a CMS Series S sensorchip by standard amine coupling methods as described by the manufacturer (GE Healthcare). Briefly, immediately after EDC/NHS activation, a 25 μg/mL solution of anti-human Fc in 10 mM NaOAc pH 4.5 was injected at a flow rate of 10 μL/min for 420 s until approximately 2000 resonance units (RUs) were immobilized on all four flow cells. The remaining active groups were quenched by a 420 s injection of 1M ethanolamine at 10 μL/min.
Antibodies for analysis were captured onto the anti-Fc surface by injecting 5 μg/mL solutions at a flow rate of 10 μL/min for 60 s. Using single-cycle kinetics, five concentrations of a two-fold dilution series of 4-1BB starting at 40 nM (for both supernatant and purified antibody runs) with a blank buffer control were sequentially injected at 40 μL/min for 180 s with a 600 s dissociation phase, resulting in a set of sensorgrams with a buffer blank reference. Experiments were performed at a constant temperature of 25° C. The anti-human Fc surfaces were regenerated to prepare for the next injection cycle by one pulse of 10 mM Glycine/HCl pH 1.5 for 120 s at 40 μL/min. Blank-subtracted sensorgrams were analyzed using Biacore™ T200 Evaluation Software v3.0. The blank-subtracted sensorgrams were then fit to the 1:1 Langmuir binding model.
Variants purified by SEC were assessed for binding to human 4-1BB.

Changes are numbered by the printed parent chain.

T1 sequence (P15328 25-234 limits assumed): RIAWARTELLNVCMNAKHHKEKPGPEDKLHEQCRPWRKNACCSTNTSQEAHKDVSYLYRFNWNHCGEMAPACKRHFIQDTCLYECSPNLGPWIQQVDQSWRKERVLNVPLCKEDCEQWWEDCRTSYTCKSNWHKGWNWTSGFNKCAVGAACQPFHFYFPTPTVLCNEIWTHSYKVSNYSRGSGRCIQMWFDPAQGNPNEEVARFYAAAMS

B1: v23657 (bispecific antibody, human IgG1, kappa, L234A L235A)
heavy 1: QVQLKQSGPGLVQPSQSLSITCTVSGFSLTSYGVHWVRQSPGKGLEWLGVIWSGGSTDYNAAFISRLSISKDNSKSQVFFKMNSLQADDTAIYYCARNPLTATVMDYWGQGTSVTVSSASTKGPSVFPLAPSSKSTSGGTAALGCLVKDYFPEPVTVSWNSGALTSGVHTFPAVLQSSGLYSLSSVVTVPSSSLGTQTYICNVNHKPSNTKVDKKVEPKSCDKTHTCPPCPAPEAAGGPSVFLFPPKPKDTLMISRTPEVTCVVVSVSHEDPEVKFNWYVDGVEVHNAKTKPREEQYNSTYRVVSVLTVLHQDWLNGKEYKCKVSNKALPAPIEKTISKAKGQPREPQVYVYPPSRDELTKNQVSLTCLVKGFYPSDIAVEWESNGQPENNYKTTPPVLDSDGSFALVSKLTVDKSRWQQGNVFSCSVMHEALHNHYTQKSLSLSPGGGGGDIVMTQTPASVEAAVGGTVTIKCQASQSIYSSLAWYQQKPGQSPKLLIYDASHLASGVPSRFSGSRYGTEFTLTISGVQCDDAATYYCQGGWYSSAATYVPNTFGGGTEVVVKGGGGSGGGGSGGGGSQEQLVESGGGLVQPEGSLTLTCKASGFTISNNYYMCWVRQAPGKGLEWIACIYGGISGRTYYASWAKGRFTISKTSSTTVTLQMTSLTAADTATYFCVRGYVGTSNLWGPGTLVTVSS
heavy 2: QVQLKQSGPGLVQPSQSLSITCTVSGFSLTSYGVHWVRQSPGKGLEWLGVIWSGGSTDYNAAFISRLSISKDNSKSQVFFKMNSLQADDTAIYYCARNPLTATVMDYWGQGTSVTVSSASTKGPSVFPLAPSSKSTSGGTAALGCLVKDYFPEPVTVSWNSGALTSGVHTFPAVLQSSGLYSLSSVVTVPSSSLGTQTYICNVNHKPSNTKVDKKVEPKSCDKTHTCPPCPAPEAAGGPSVFLFPPKPKDTLMISRTPEVTCVVVSVSHEDPEVKFNWYVDGVEVHNAKTKPREEQYNSTYRVVSVLTVLHQDWLNGKEYKCKVSNKALPAPIEKTISKAKGQPREPQVYVLPPSRDELTKNQVSLLCLVKGFYPSDIAVEWESNGQPENNYLTWPPVLDSDGSFFLYSKLTVDKSRWQQGNVFSCSVMHEALHNHYTQKSLSLSPG
light: DIVMTQSQKFMSTSVGDRVSVTCKASQNVGTNVAWYQQKPGQSRTVLIYSASYRHSGVPDRFTGSGSGTDFTLTISNVQSEDLAEYFCQQYNSYPLTFGTGTKLELKRTVAAPSVFIFPPSDEQLKSGTASVVCLLNNFYPREAKVQWKVDNALQSGNSQESVTEQDSKDSTYSLSSTLTLSKADYEKHKVYACEVTHQGLSSPVTKSFNRGEC
notes: also called 2E8 x 8K22 (VLVH) 2x1
For orientation: Kd means the concentration at which binding is half-saturated. Lower therefore signals tighter binding. As for B1, the binding result in assay [1] is “binds”. For the same molecule, the dissociation constant (Kd) in assay [2] worked out at 175 nM.

B2: v23659 (bispecific antibody, human IgG1, kappa, L234A L235A)
heavy 1: B1 heavy 1 with K5Q, Q6E, S15T, T30I
heavy 2: B1 heavy 2 with K5Q, Q6E, S15T, T30I
light: B1 light with R44P, T45K, V46A, H55D, F87L, T100A
notes: also called 5G8 x 8K22 (VLVH) 2x1
For B2, the binding result in assay [1] is “binds”. In addition, in assay [2], the Kd is 208 nM.

B3: v23665 (bispecific antibody, human IgG1, kappa, L234A L235A)
heavy 1: QVQLKESGPGLVAPSQSLSITCTVSGFSLTSYAISWVRQPPGKGLEWLGVIWPGGGTNYNSALKSRLSISKDNSKSQVFLKMNSLQTDDTARYYCARGTGTWYFDVWGAGTTVTVSSASTKGPSVFPLAPSSKSTSGGTAALGCLVKDYFPEPVTVSWNSGALTSGVHTFPAVLQSSGLYSLSSVVTVPSSSLGTQTYICNVNHKPSNTKVDKKVEPKSCDKTHTCPPCPAPEAAGGPSVFLFPPKPKDTLMISRTPEVTCVVVSVSHEDPEVKFNWYVDGVEVHNAKTKPREEQYNSTYRVVSVLTVLHQDWLNGKEYKCKVSNKALPAPIEKTISKAKGQPREPQVYVYPPSRDELTKNQVSLTCLVKGFYPSDIAVEWESNGQPENNYKTTPPVLDSDGSFALVSKLTVDKSRWQQGNVFSCSVMHEALHNHYTQKSLSLSPGGGGGDIVMTQTPSSVSAAVGGTVTIKCQASQTIGSSLAWYQQKPGQPPKLLIYRASTLASGVSSRFRGSGSGTEYTLTISDLECADAATYYCQWTDYGYIYIWAFGGGTEVVVKGGGGSGGGGSGGGGSQEQLVESGGGLVQPEGSLTLTCTASKFSFSSLYYMCWVRQAPGKGLEWIACVYGGSSGNTYYASWAKGRFTISKASSTTVTLQLTSLTAADTATYFCARFDVDGSGFNLWGPGTLVTVSS
heavy 2: QVQLKESGPGLVAPSQSLSITCTVSGFSLTSYAISWVRQPPGKGLEWLGVIWPGGGTNYNSALKSRLSISKDNSKSQVFLKMNSLQTDDTARYYCARGTGTWYFDVWGAGTTVTVSSASTKGPSVFPLAPSSKSTSGGTAALGCLVKDYFPEPVTVSWNSGALTSGVHTFPAVLQSSGLYSLSSVVTVPSSSLGTQTYICNVNHKPSNTKVDKKVEPKSCDKTHTCPPCPAPEAAGGPSVFLFPPKPKDTLMISRTPEVTCVVVSVSHEDPEVKFNWYVDGVEVHNAKTKPREEQYNSTYRVVSVLTVLHQDWLNGKEYKCKVSNKALPAPIEKTISKAKGQPREPQVYVLPPSRDELTKNQVSLLCLVKGFYPSDIAVEWESNGQPENNYLTWPPVLDSDGSFFLYSKLTVDKSRWQQGNVFSCSVMHEALHNHYTQKSLSLSPG
light: DIQMTQTTSSLSASLGDRVTISCSASQGISNYLNWYQQKPDGTVKLLIYYTSSLHSGVPSRFSGSGSGTDYSLTISNLEPEDIATYYCQQYSDLPWTFGGGTKLEIKRTVAAPSVFIFPPSDEQLKSGTASVVCLLNNFYPREAKVQWKVDNALQSGNSQESVTEQDSKDSTYSLSSTLTLSKADYEKHKVYACEVTHQGLSSPVTKSFNRGEC
notes: also called 6B3 x 1H06 (VLVH) 2x1
Take B3: the binding result in assay [1] is reported as “binds”. In assay [2], this molecule registered a Kd of 464 nM.

B4: v23663 (bispecific antibody, human IgG1, kappa, L234A L235A)
heavy 1: B3 heavy 1 with S35N, I51L, T99S
heavy 2: B3 heavy 2 with S35N, I51L, T99S
light: B3 light with I21F, S56L, D93K
notes: also called 4E6 x 1H06 (VLVH) 2x1
Consider B4, for which the binding result in assay [1] is “binds”. For the same molecule, the dissociation constant (Kd) in assay [2] was found to be 502 nM.

B5: v23661 (bispecific antibody, human IgG1, kappa, L234A L235A)
heavy 1: B3 heavy 1 with S31T, V50I, K75R, T99A
heavy 2: B3 heavy 2 with S31T, V50I, K75R, T99A
light: B3 light with T7S, L15V, D93K, L94F
notes: also called 1C8 x 1H06 (VLVH) 2x1
Consider B5, for which the binding result in assay [1] is reported as “binds”. In assay [2], this molecule showed a dissociation constant (Kd) of 535 nM.
